Substitutions are numbered along the chain they refer to.
B1: 57 (protein)
chain: STAIAQEGAAPAAILHPEKWPRPATQRLIDPAVEKRVDALLKQLSVEEKVGQVIQGDIGTITPEDLRKYPLGSILAGGNSGPNGDDRAPPKEWLDLADAFYRVSLEKRPGHTPIPVLFGIDAVHGHGNIGSATIFPHNIALGATHDPELLRRIGEVTAVEMAATGIDWTFAPALSVVRDDRWGRTYEGFSEDPEIVAAYSAAIVEGVQGKFGSKDFMAPGRCVASAKHFLADGGTDQGRDQGDARISEDELIRIHNAGYPPAIDAGVLTVMASFSSWQGIKHHGHKQLLTDVLKGQMGFNGFIVGDWNAHDQVPGCTKFNCPTSLIAGLDMYMAADSWKQLYENTLAQVKDGTIPMARLDDAVRRILRVKVLAGLFEKPAPKDRPGLPGLETLGSPEHRAVGREAVRKSLVLLKNDKGTLPLSPKARVLVAGDGADNIGKQSGGWTISWQGTGNRNDEFPGATSILGGIRDAVADAGGSVEFDVAGQYKTKPDVAIVVFGEEPYAEFQGDVETLEYQPDQKQDLALLKKLKDQGIPVVAVFLSGRPMWVNPELNASDAFVAAWLPGTEGGGVADVLFTDKAGKVQHDFAGKLSYSWPRTAAQTTVNRGDADYNPLFAYGYGLTYKDKSKVGTLPEESGVPAEARQNAGIYFRAGALRLPGRFL
B2: 61 (protein)
chain: B1 chain with E155A, C222I
B3: 72 (protein)
chain: B1 chain with V46F, C222A
B4: 65 (protein)
chain: B1 chain with P219Q, C222I
B5: 58 (protein)
chain: B1 chain with E155M, C222I
B6: 67 (protein)
chain: B1 chain with P219C, C222I
B7: 66 (protein)
chain: B1 chain with P219E, C222I
B8: 71 (protein)
chain: B1 chain with A202L, C222I
B9: 70 (protein)
chain: B1 chain with P219L, C222I
B10: 64 (protein)
chain: B1 chain with A162V, C222I
B11: 62 (protein)
chain: B1 chain with E155W, C222I
B12: 68 (protein)
chain: B1 chain with P219I, C222I
B13: 73b (protein)
chain: B1 chain with A202S, C222I
B14: 73a (protein)
chain: B1 chain with T60Y, C222I
B15: 69 (protein)
chain: B1 chain with P219T, C222I
B16: 73 (protein)
chain: B1 chain with C222V
B17: 63 (protein)
chain: B1 chain with R151W, C222I
B18: 59 (protein)
chain: B1 chain with E155Q, C222I
B19: 60 (protein)
chain: B1 chain with E155K, C222I
B20: 141 (protein)
chain: B1 chain with A143M, H145R, F211Y, P219V, C222I, S225C
B21: 138 (protein)
chain: B1 chain with N79D, N128K, H145R, D146S, V159E, F211Y, C222S, S225C
B22: 139 (protein)
chain: B1 chain with A143M, H145R, A162T, F211Y, C222I, S225C
B23: 134 (protein)
chain: B1 chain with N128K, A143M, H145R, V159E, A173C, A201P, F211Y, P219V, C222I
B24: 136 (protein)
chain: B1 chain with N128K, A143M, H145R, V159Q, A198S, F211Y, C222A, S225C, M297I, Q487R
B25: 143 (protein)
chain: B1 chain with A143M, H145R, A198S, F211Y, C222I, S225C
B26: 142 (protein)
chain: B1 chain with N79D, N128K, H145R, A201P, P219V, C222I, K491R
B27: 140 (protein)
chain: B1 chain with N79D, A143M, H145R, V159Q, A201P, F211Y, P219V, C222I, S225C

experiment: High throughput cellobiose assay: fold improvement in cellobiase activity of CelA variants over a control enzyme (Tables 2A-2D, 3, 5, 6, 7); type: biochemical; conditions: 3.3 g/l cellobiose, 50° C. and pH 6.5; compared to native CelA (SEQ ID NO: 4)

Row | Molecule | Fold improvement over wildtype CelA
1 | B1 | + (+ = 1.1 to 2.0 fold improvement over native CelA (SEQ ID NO: 4))
2 | B2 | + (+ = 1.1 to 2.0 fold improvement over native CelA (SEQ ID NO: 4))
3 | B3 | + (+ = 1.1 to 2.0 fold improvement over native CelA (SEQ ID NO: 4))
4 | B4 | + (+ = 1.1 to 2.0 fold improvement over native CelA (SEQ ID NO: 4))
5 | B5 | + (+ = 1.1 to 2.0 fold improvement over native CelA (SEQ ID NO: 4))
6 | B6 | + (+ = 1.1 to 2.0 fold improvement over native CelA (SEQ ID NO: 4))
7 | B7 | + (+ = 1.1 to 2.0 fold improvement over native CelA (SEQ ID NO: 4))
8 | B8 | + (+ = 1.1 to 2.0 fold improvement over native CelA (SEQ ID NO: 4))
9 | B9 | + (+ = 1.1 to 2.0 fold improvement over native CelA (SEQ ID NO: 4))
10 | B10 | + (+ = 1.1 to 2.0 fold improvement over native CelA (SEQ ID NO: 4))
11 | B11 | + (+ = 1.1 to 2.0 fold improvement over native CelA (SEQ ID NO: 4))
12 | B12 | + (+ = 1.1 to 2.0 fold improvement over native CelA (SEQ ID NO: 4))
13 | B13 | + (+ = 1.1 to 2.0 fold improvement over native CelA (SEQ ID NO: 4))
14 | B14 | + (+ = 1.1 to 2.0 fold improvement over native CelA (SEQ ID NO: 4))
15 | B15 | + (+ = 1.1 to 2.0 fold improvement over native CelA (SEQ ID NO: 4))
16 | B16 | + (+ = 1.1 to 2.0 fold improvement over native CelA (SEQ ID NO: 4))
17 | B17 | + (+ = 1.1 to 2.0 fold improvement over native CelA (SEQ ID NO: 4))
18 | B18 | + (+ = 1.1 to 2.0 fold improvement over native CelA (SEQ ID NO: 4))
19 | B19 | + (+ = 1.1 to 2.0 fold improvement over native CelA (SEQ ID NO: 4))

same assay, conditions: 3.3 g/l cellobiose, 55° C. and pH 6.0

Row | Molecule | Fold improvement over Control Variant No. 5 from Table 2A
20 | B20 | +++ (+++ = 6 to 13 fold improvement over control Variant No. 2)
21 | B21 | +++ (+++ = 6 to 13 fold improvement over control Variant No. 2)
22 | B22 | +++ (+++ = 6 to 13 fold improvement over control Variant No. 2)
23 | B23 | ++ (++ = 1.1 to 6 fold improvement over control Variant No. 2)
24 | B24 | ++ (++ = 1.1 to 6 fold improvement over control Variant No. 2)
25 | B25 | +++ (+++ = 6 to 13 fold improvement over control Variant No. 2)
26 | B26 | +++ (+++ = 6 to 13 fold improvement over control Variant No. 2)
27 | B27 | +++ (+++ = 6 to 13 fold improvement over control Variant No. 2)

From patent US8357523B2, “Beta-glucosidase variant enzymes and related polynucleotides” (Codexis, Inc., priority 2009, dated 2013)
